For this data set, the system named is FOXA1 P358fs (purified). Put plainly: BLI. The following applies: buffer, pH and temperature not given.

On to KLK3 enhancer 60 bp, for which the binding signal (fold higher affinity than WT) worked out at 5.

The values are drawn from article PMC6661908.
